Data on 5 molecules can be found in patent US6914129 (dated 2005).

In one assay the target is T1, FceRII (CD23, FCEL) (human, UniProt P06734).
T1 chain: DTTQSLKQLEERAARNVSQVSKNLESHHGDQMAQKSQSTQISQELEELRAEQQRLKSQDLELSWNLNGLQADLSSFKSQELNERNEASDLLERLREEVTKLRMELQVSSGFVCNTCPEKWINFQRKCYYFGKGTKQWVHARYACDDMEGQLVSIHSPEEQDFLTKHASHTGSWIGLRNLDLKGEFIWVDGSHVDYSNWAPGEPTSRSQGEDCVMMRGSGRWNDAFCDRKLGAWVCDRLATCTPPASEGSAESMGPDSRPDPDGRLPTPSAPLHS
The experiment in a line: FACS. (In general: A flow cytometer gives signals particle by particle.)

The next assay deals with T2, FceRI alpha (FCEH) (human, UniProt P12319).
T2 chain: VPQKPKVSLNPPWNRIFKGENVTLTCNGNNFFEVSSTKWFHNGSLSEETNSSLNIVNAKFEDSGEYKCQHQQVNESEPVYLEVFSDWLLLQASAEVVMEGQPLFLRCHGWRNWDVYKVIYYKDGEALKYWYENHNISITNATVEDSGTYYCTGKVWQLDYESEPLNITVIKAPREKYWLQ
The experiment in a line: FACS.

B1: IgE mutant 3 (protein)
chain: ASTQSPSVFPLTRCCKNIPSNATSVTLGCLATGYFPEPVMVTWDTGSLNGTTMTLPATTLTLSGHYATISLLTVSGAWAKQMFTCRVAHTPSSTDWVDNKTFSVCSRDFTPPTVKILQSSCDGGGHFPPTIQLLCLVSGYTPGTINITWLEDGQVMDVDLSTASTTQEGELASTQSELTLSQKHWLSDRTYTCQVTYQGHTFEDSTKKCADSNPRGVSAYLSRPSPFDLFIRKSPTITCLVVDLAPSKGTVNLTWSRASGKPVNHSTRKEEKQRNGTLTVTSTLPVGTRDWIEGETYQCRVTHPHLPRALMRSTTKTSGPRAAPEVYAFATPEWPGSRDKRTLACLIQNFMPEDISVQWLHNEVQLPDARHSTTQPRKTKGSGFFVFSRLEVTRAEWEQKDEFICRAVHEAASPSQTVQRAVSVNPGLAGGSAQSQRAPDRVLCHSGQQQGLPRAAGGSVPHPRCHCGAGRADWPGPPELDVCVEEAEGEAPWTWTGLC
For B1, the binding result in the assay with FceRII (CD23, FCEL) was “no binding”.

B2: IgE mutant 1 (protein)
chain: ASTQSPSVFPLTRCCKNIPSNATSVTLGCLATGYFPEPVMVTWDTGSLNGTTMTLPATTLTLSGHYATISLLTVSGAWAKQMFTCRVAHTPSSTDWVDNKTFSVCSRDFTPPTVKILQSSCDGGGHFPPTIQLLCLVSGYTPGTINITWLEDGQVMDVDLSTASTTQEGELASTQSELTLSQKHWLSDRTYTCQVTYQGHTFEDSTKKCADSNPRGVSAYLSRPSPFDLFIRKSPTITCLVVDLAPSKGTVNLTWSRASGKPVNHSTRKEEKQRNGTLTVTSTLPVGTRDWIEGETYQCRVTHPHLPRALMRSTTKTSGPRAAPEVYAFATPEWPGSRDKRTLACLIQNFMPEDISVQWLHNEVQLPDARHSTTQPRKTKGSGFFVFSRLEVTRAEWEQKDEFICRAVHEAASPSQTVQRAVSVNPGLAGGSAQSQRAPDRVLCHSGQQQGLPRAAGGSVPHPRCHCGAGRADWPGPPELDVCVEEAEGEAPWTWTGLC
In the case of B2, the binding result is given as “no binding” with FceRII (CD23, FCEL) and “no binding” with FceRI alpha (FCEH).

B3: IgE mutant 50 (protein)
chain: ASTQSPSVFPLTRCCKNIPSNATSVTLGCLATGYFPEPVMVTWDTGSLNGTTMTLPATTLTLSGHYATISLLTVSGAWAKQMFTCRVAHTPSSTDWVDNKTFSVCSRDFTPPTVKILQSSCDGGGHFPPTIQLLCLVSGYTPGTINITWLEDGQVMDVDLSTASTTQEGELASTQSELTLSQKHWLSDRTYTCQVTYQGHTFEDSTKKCADSNPRGVSAYLSRPSPFDLFIRKSPTITCLVVDLAPSKGTVNLTWSRASGKPVNHSTRKEEKQRNGTLTVTSTLPVGTRDWIEGETYQCRVTHPHLPRALMRSTTKTSGPRAAPEVYAFATPEWPGSRDKRTLACLIQNFMPEDISVQWLHNEVQLPDARHSTTQPRKTKGSGFFVFSRLEVTRAEWEQKDEFICRAVHEAASPSQTVQRAVSVNPGLAGGSAQSQRAPDRVLCHSGQQQGLPRAAGGSVPHPRCHCGAGRADWPGPPELDVCVEEAEGEAPWTWTGLC
As to B3, in the assay with FceRII (CD23, FCEL), the binding result was “no binding”.

B4: IgE mutant 62 (protein)
chain: ASTQSPSVFPLTRCCKNIPSNATSVTLGCLATGYFPEPVMVTWDTGSLNGTTMTLPATTLTLSGHYATISLLTVSGAWAKQMFTCRVAHTPSSTDWVDNKTFSVCSRDFTPPTVKILQSSCDGGGHFPPTIQLLCLVSGYTPGTINITWLEDGQVMDVDLSTASTTQEGELASTQSELTLSQAHWLSDRTYTCQVTYQGHTFEDSTKKCADSNPRGVSAYLSRPSPFDLFIRKSPTITCLVVDLAPSKGTVNLTWSRASGKPVNHSTRKEEKQRNGTLTVTSTLPVGTRDWIEGETYQCRVTHPHLPRALMRSTTKTSGPRAAPEVYAFATPEWPGSRDKRTLACLIQNFMPEDISVQWLHNEVQLPDARHSTTQPRKTKGSGFFVFSRLEVTRAEWEQKDEFICRAVHEAASPSQTVQRAVSVNPGLAGGSAQSQRAPDRVLCHSGQQQGLPRAAGGSVPHPRCHCGAGRADWPGPPELDVCVEEAEGEAPWTWTGLC
Regarding B4, the binding result in the assay with FceRII (CD23, FCEL) is on record as “no binding”.

B5: IgE mutant 4 (protein)
chain: ASTQSPSVFPLTRCCKNIPSNATSVTLGCLATGYFPEPVMVTWDTGSLNGTTMTLPATTLTLSGHYATISLLTVSGAWAKQMFTCRVAHTPSSTDWVDNKTFSVCSRDFTPPTVKILQSSCDGGGHFPPTIQLLCLVSGYTPGTINITWLEDGQVMDVDLSTASTTQEGELASTQSELTLSQKHWLSDRTYTCQVTYQGHTFEDSTKKCADSNPRGVSAYLSRPSPFDLFIRKSPTITCLVVDLAPSKGTVNLTWSRASGKPVNHSTRKEEKQRNGTLTVTSTLPVLHQDWLDGKEYQCRVTHPHLPRALMRSTTKTSGPRAAPEVYAFATPEWPGSRDKRTLACLIQNFMPEDISVQWLHNEVQLPDARHSTTQPRKTKGSGFFVFSRLEVTRAEWEQKDEFICRAVHEAASPSQTVQRAVSVNPGLAGGSAQSQRAPDRVLCHSGQQQGLPRAAGGSVPHPRCHCGAGRADWPGPPELDVCVEEAEGEAPWTWTGLC
As for B5, the binding result with FceRII (CD23, FCEL) is reported as “no binding”; with FceRI alpha (FCEH), “no binding”.
